Results reported in US11833164B2, “Methods of treating Fabry disease in patients having a mutation in the GLA gene” (Amicus Therapeutics, Inc., priority 2019, dated 2023).

Tested on: mutant form of α-Gal A expressed in HEK-293 cells
Assay: HEK assay (GLP HEK / Migalastat Amenability Assay): α-Gal A activity in lysates of transiently transfected HEK-293 cells incubated with or without 10 μM migalastat
Assay type: cell-based, human
Conditions: for Absolute increase (% WT) / Relative increase: 10 μM migalastat versus baseline; for Baseline α-Gal A activity (% WT): absence of migalastat; for Baseline α-Gal A activity (% WT) / 10 μM migalastat α-Gal A activity (% WT): percentage of baseline wild-type α-Gal A activity; for Baseline α-Gal A activity (% WT) / Baseline α-Gal A activity / 10 μM migalastat α-Gal A activity / 10 μM migalastat α-Gal A activity (% WT): mean ± SEM; for Baseline α-Gal A activity / 10 μM migalastat α-Gal A activity: lysates of HEK-293 cells transiently transfected with the mutant form; for Baseline α-Gal A activity: incubated 5 days in absence of migalastat; for 10 μM migalastat α-Gal A activity: incubated 5 days with 10 μM migalastat; for 10 μM migalastat α-Gal A activity (% WT): with 10 μM migalastat, 5 days
Method in brief: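 Activity reported as 4-MU released (nmol/mg/hr), mean±SEM, from lysates of transiently transfected HEK-293 cells expressing mutant α-Gal A, cultured with or without 10 μM migalastat.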

| Molecule | Absolute increase (% WT) | Relative increase | Baseline α-Gal A activity (% WT) | Baseline α-Gal A activity | 10 μM migalastat α-Gal A activity | 10 μM migalastat α-Gal A activity (% WT) |
| --- | --- | --- | --- | --- | --- | --- |
| S304I (protein) MQLRNPELHLGCALALRFLALVSWDIPGARALDNGLARTPTMGWLHWERFMCNLDCQEEPDSCISEKLFMEMAELMVSEGWKDAGYEYLCIDDCWMAPQRDSEGRLQADPQRFPHGIRQLANYVHSKGLKLGIYADVGNKTCAGFPGSFGYYDIDAQTFADWGVDLLKFDGCYCDSLENLADGYKHMSLALNRTGRSIVYSCEWPLYMWPFQKPNYTEIRQYCNHWRNFADIDDSWKSIKSILDWTSFNQERIVDVAGPGGWNDPDMLVIGNFGLSWNQQVTQMALWAIMAAPLFMSNDLRHIIPQAKALLQDKDVIAINQDPLGKQGYQLRQGDNFEVWERPLSGLAWAVAMINRQEIGGPRSYTIAVASLGKGVACNPACFITQLLPVKRKLGFYEWTSRLRSHINPTGTVLLQLENTMQMSLKDLL | 13.9 % WT | 1.5 | 30.6 ± 1.4 % WT | 11675 ± 939 nmol/mg/h | 17257 ± 1837 nmol/mg/h | 44.6 ± 2.4 % WT |
| Q306P (protein) MQLRNPELHLGCALALRFLALVSWDIPGARALDNGLARTPTMGWLHWERFMCNLDCQEEPDSCISEKLFMEMAELMVSEGWKDAGYEYLCIDDCWMAPQRDSEGRLQADPQRFPHGIRQLANYVHSKGLKLGIYADVGNKTCAGFPGSFGYYDIDAQTFADWGVDLLKFDGCYCDSLENLADGYKHMSLALNRTGRSIVYSCEWPLYMWPFQKPNYTEIRQYCNHWRNFADIDDSWKSIKSILDWTSFNQERIVDVAGPGGWNDPDMLVIGNFGLSWNQQVTQMALWAIMAAPLFMSNDLRHISPPAKALLQDKDVIAINQDPLGKQGYQLRQGDNFEVWERPLSGLAWAVAMINRQEIGGPRSYTIAVASLGKGVACNPACFITQLLPVKRKLGFYEWTSRLRSHINPTGTVLLQLENTMQMSLKDLL | 30.0 % WT | 1.5 | 57.4 ± 2.8 % WT | 19933 ± 1648 nmol/mg/h | 29495 ± 1671 nmol/mg/h | 87.5 ± 4.8 % WT |
| A307P (protein) MQLRNPELHLGCALALRFLALVSWDIPGARALDNGLARTPTMGWLHWERFMCNLDCQEEPDSCISEKLFMEMAELMVSEGWKDAGYEYLCIDDCWMAPQRDSEGRLQADPQRFPHGIRQLANYVHSKGLKLGIYADVGNKTCAGFPGSFGYYDIDAQTFADWGVDLLKFDGCYCDSLENLADGYKHMSLALNRTGRSIVYSCEWPLYMWPFQKPNYTEIRQYCNHWRNFADIDDSWKSIKSILDWTSFNQERIVDVAGPGGWNDPDMLVIGNFGLSWNQQVTQMALWAIMAAPLFMSNDLRHISPQPKALLQDKDVIAINQDPLGKQGYQLRQGDNFEVWERPLSGLAWAVAMINRQEIGGPRSYTIAVASLGKGVACNPACFITQLLPVKRKLGFYEWTSRLRSHINPTGTVLLQLENTMQMSLKDLL | 12.3 % WT | 1.4 | 32.8 ± 1.7 % WT | 11388 ± 905 nmol/mg/h | 15572 ± 1124 nmol/mg/h | 45.2 ± 2.1 % WT |
| Q306E (protein) MQLRNPELHLGCALALRFLALVSWDIPGARALDNGLARTPTMGWLHWERFMCNLDCQEEPDSCISEKLFMEMAELMVSEGWKDAGYEYLCIDDCWMAPQRDSEGRLQADPQRFPHGIRQLANYVHSKGLKLGIYADVGNKTCAGFPGSFGYYDIDAQTFADWGVDLLKFDGCYCDSLENLADGYKHMSLALNRTGRSIVYSCEWPLYMWPFQKPNYTEIRQYCNHWRNFADIDDSWKSIKSILDWTSFNQERIVDVAGPGGWNDPDMLVIGNFGLSWNQQVTQMALWAIMAAPLFMSNDLRHISPEAKALLQDKDVIAINQDPLGKQGYQLRQGDNFEVWERPLSGLAWAVAMINRQEIGGPRSYTIAVASLGKGVACNPACFITQLLPVKRKLGFYEWTSRLRSHINPTGTVLLQLENTMQMSLKDLL | 19.7 % WT | 1.2 | 82 ± 2.8 % WT | 31745 ± 2212 nmol/mg/h | 39019 ± 2405 nmol/mg/h | 101.7 ± 4.2 % WT |
| A307S (protein) MQLRNPELHLGCALALRFLALVSWDIPGARALDNGLARTPTMGWLHWERFMCNLDCQEEPDSCISEKLFMEMAELMVSEGWKDAGYEYLCIDDCWMAPQRDSEGRLQADPQRFPHGIRQLANYVHSKGLKLGIYADVGNKTCAGFPGSFGYYDIDAQTFADWGVDLLKFDGCYCDSLENLADGYKHMSLALNRTGRSIVYSCEWPLYMWPFQKPNYTEIRQYCNHWRNFADIDDSWKSIKSILDWTSFNQERIVDVAGPGGWNDPDMLVIGNFGLSWNQQVTQMALWAIMAAPLFMSNDLRHISPQSKALLQDKDVIAINQDPLGKQGYQLRQGDNFEVWERPLSGLAWAVAMINRQEIGGPRSYTIAVASLGKGVACNPACFITQLLPVKRKLGFYEWTSRLRSHINPTGTVLLQLENTMQMSLKDLL | 27.7 % WT | 1.3 | 85.9 ± 4.5 % WT | 29300 ± 2037 nmol/mg/h | 38558 ± 2274 nmol/mg/h | 113.6 ± 5.2 % WT |
| Q306L (protein) MQLRNPELHLGCALALRFLALVSWDIPGARALDNGLARTPTMGWLHWERFMCNLDCQEEPDSCISEKLFMEMAELMVSEGWKDAGYEYLCIDDCWMAPQRDSEGRLQADPQRFPHGIRQLANYVHSKGLKLGIYADVGNKTCAGFPGSFGYYDIDAQTFADWGVDLLKFDGCYCDSLENLADGYKHMSLALNRTGRSIVYSCEWPLYMWPFQKPNYTEIRQYCNHWRNFADIDDSWKSIKSILDWTSFNQERIVDVAGPGGWNDPDMLVIGNFGLSWNQQVTQMALWAIMAAPLFMSNDLRHISPLAKALLQDKDVIAINQDPLGKQGYQLRQGDNFEVWERPLSGLAWAVAMINRQEIGGPRSYTIAVASLGKGVACNPACFITQLLPVKRKLGFYEWTSRLRSHINPTGTVLLQLENTMQMSLKDLL | 19.6 % WT | 1.3 | 56.9 ± 4 % WT | 19792 ± 1899 nmol/mg/h | 26515 ± 1960 nmol/mg/h | 76.4 ± 3.4 % WT |
| A307D (protein) MQLRNPELHLGCALALRFLALVSWDIPGARALDNGLARTPTMGWLHWERFMCNLDCQEEPDSCISEKLFMEMAELMVSEGWKDAGYEYLCIDDCWMAPQRDSEGRLQADPQRFPHGIRQLANYVHSKGLKLGIYADVGNKTCAGFPGSFGYYDIDAQTFADWGVDLLKFDGCYCDSLENLADGYKHMSLALNRTGRSIVYSCEWPLYMWPFQKPNYTEIRQYCNHWRNFADIDDSWKSIKSILDWTSFNQERIVDVAGPGGWNDPDMLVIGNFGLSWNQQVTQMALWAIMAAPLFMSNDLRHISPQDKALLQDKDVIAINQDPLGKQGYQLRQGDNFEVWERPLSGLAWAVAMINRQEIGGPRSYTIAVASLGKGVACNPACFITQLLPVKRKLGFYEWTSRLRSHINPTGTVLLQLENTMQMSLKDLL | 35.9 % WT | 1.3 | 126 ± 5.7 % WT | 42522 ± 2430 nmol/mg/h | 54502 ± 3031 nmol/mg/h | 161.9 ± 8.6 % WT |
| A307G (protein) MQLRNPELHLGCALALRFLALVSWDIPGARALDNGLARTPTMGWLHWERFMCNLDCQEEPDSCISEKLFMEMAELMVSEGWKDAGYEYLCIDDCWMAPQRDSEGRLQADPQRFPHGIRQLANYVHSKGLKLGIYADVGNKTCAGFPGSFGYYDIDAQTFADWGVDLLKFDGCYCDSLENLADGYKHMSLALNRTGRSIVYSCEWPLYMWPFQKPNYTEIRQYCNHWRNFADIDDSWKSIKSILDWTSFNQERIVDVAGPGGWNDPDMLVIGNFGLSWNQQVTQMALWAIMAAPLFMSNDLRHISPQGKALLQDKDVIAINQDPLGKQGYQLRQGDNFEVWERPLSGLAWAVAMINRQEIGGPRSYTIAVASLGKGVACNPACFITQLLPVKRKLGFYEWTSRLRSHINPTGTVLLQLENTMQMSLKDLL | 23.4 % WT | 1.5 | 52.9 ± 2.5 % WT | 17871 ± 1029 nmol/mg/h | 26053 ± 1631 nmol/mg/h | 76.3 ± 3.1 % WT |
